The values below come from the supplement of paper PMC10567573.

The chains are these.
B1: SLC6A17 (parent)
chain: KAVEEELDAEDRPAWNSKLQYILA
B2: MATN2 (parent)
chain: VNVPGSFVCQCYSGYALAEDGKRC
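Further: lentivirally expressed fusions sorted by FACS into six bins by GFP to DsRed ratio, PSI derived from sequencing read proportions per bin multiplied by bin number.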

Variants of B1 are the subject of one data set. As to the kind of experiment: protein stability index of a GFP-peptide fusion (GPS, HEK-293T) (PSI 1-6); higher = more stable. To be noted: c terminus: a fixed tail appended.
With KADEEELDAEDRPAWNSKLQYILA [V3D], the protein stability index stood at 3.66. The same measure, in the same setting: the value for KAYEEELDAEDRPAWNSKLQYILA [V3Y] was 2.2; that for KAVEEELDAEDVPAWNSKLQYILA [R12V] was 2.54. For the variant KAVEEELDAEDTPAWNSKLQYILA [R12T], the protein stability index is 3.82. On the same count and under the same terms, the value for KAVEEELDAEDRPAWNSKKQYILA [L19K] was 3.99; that for KAVEEELNAEDRPAWNSKLQYILA [D8N] was 2.46.

Turning to KAVESELDAEDRPAWNSKLQYILA [E5S], the protein stability index stood at 2.51. GAVEEELDAEDRPAWNSKLQYILA [K1G]: the protein stability index amounted to 3.25. Same read-out and setting: under MAVEEELDAEDRPAWNSKLQYILA [K1M] stands 2.77; under KAVEEELDAEWRPAWNSKLQYILA [D11W], 2.16. As to KAVEEELDAECRPAWNSKLQYILA [D11C], the protein stability index was found to be 1.99.

In the case of KAVEEELDAEDRKAWNSKLQYILA [P13K], the protein stability index was 2.57. Still for that read-out and setting: under KLVEEELDAEDRPAWNSKLQYILA [A2L] stands 1.55. For KRVEEELDAEDRPAWNSKLQYILA [A2R], the protein stability index was found to be 2.28. On the same count and under the same terms, under KAVEEYLDAEDRPAWNSKLQYILA [E6Y] stands 2.65; under KAVEEEEDAEDRPAWNSKLQYILA [L7E], 3.21. On the same count and under the same terms, the value for KAVEEELDAEDRPAWNSKLQYILG [A24G] was 3.52. Still for that read-out and setting: under KAVEEELDAEDRPAWNSKLVYILA [Q20V] stands 2.13. On to KAVYEELDAEDRPAWNSKLQYILA [E4Y], for which the protein stability index was 1.8.

Turning to KAVGEELDAEDRPAWNSKLQYILA [E4G], the protein stability index is 2.12.

For the variant KAVLEELDAEDRPAWNSKLQYILA [E4L], the protein stability index was 3.26. Still for that read-out and setting: the value for KAVDEELDAEDRPAWNSKLQYILA [E4D] was 2.79. On to KAVEEELDAEDRPAWNSKLQYCLA [I22C], for which the protein stability index was 3.13.

KAVEEELDAEDRPAWNSKLQYPLA [I22P]: the protein stability index is 4.44. Turning to KAVEEELDAEDRPAWNSKLQYTLA [I22T], the protein stability index amounted to 4.4. Same read-out and setting: under KAVEEELDAEDRPPWNSKLQYILA [A14P] stands 2.46.

The variants in a further data set derive from B2. The data set is described as above. Conditions: c terminus: a fixed tail appended.
Regarding VNVPGSFVCQCYSGYALAENGKRC [D20N], the protein stability index came out at 1.34.

Take VNVPGSFVCQCYSGYALAEGGKRC [D20G]: the protein stability index is 1.48. Same read-out and setting: under VNVPGSFVCQCYSGYALAEKGKRC [D20K] stands 1.65; under VNVPGSFVCQCYSGYALAEPGKRC [D20P], 2.42.

Turning to VNVPGSFVCQCYSGYALAERGKRC [D20R], the protein stability index worked out at 1.58. Still for that read-out and setting: the value for VNVPGSFVCQCYSGYALAEQGKRC [D20Q] was 1.37; that for VNVPGSFVCQCYSGYALAEHGKRC [D20H] was 2.1; that for VNVPGSFVCQCYSGYALAEVGKRC [D20V] was 1.87. On the same count and under the same terms, the value for ANVPGSFVCQCYSGYALAEDGKRC [V1A] was 2.14; that for GNVPGSFVCQCYSGYALAEDGKRC [V1G] was 2.6; that for MNVPGSFVCQCYSGYALAEDGKRC [V1M] was 1.87. Same read-out and setting: under RNVPGSFVCQCYSGYALAEDGKRC [V1R] stands 1.37; under CNVPGSFVCQCYSGYALAEDGKRC [V1C], 2.15; under LNVPGSFVCQCYSGYALAEDGKRC [V1L], 2.17.

Regarding DNVPGSFVCQCYSGYALAEDGKRC [V1D], the protein stability index was 2.6.

Turning to VNVPGSFICQCYSGYALAEDGKRC [V8I], the protein stability index came out at 2.21. Same read-out and setting: under VNVPGSFPCQCYSGYALAEDGKRC [V8P] stands 2.28; under VNVPGSFYCQCYSGYALAEDGKRC [V8Y], 3.01; under VNVPGSFQCQCYSGYALAEDGKRC [V8Q], 2.51. The same measure, in the same setting: the value for VNVPGSFHCQCYSGYALAEDGKRC [V8H] was 2.34.

On to VNVPGSFECQCYSGYALAEDGKRC [V8E], for which the protein stability index is 2.53. In the case of VNVPGSFACQCYSGYALAEDGKRC [V8A], the protein stability index stood at 2.16. On the same count and under the same terms, under VNVPGSFVCQCYSGYALDEDGKRC [A18D] stands 2.36. For VNVPGSFVCQCYSGYALFEDGKRC [A18F], the protein stability index came to 2.48. Still for that read-out and setting: the value for VNVPGSFVCQCYSGYALQEDGKRC [A18Q] was 2.38; that for VNVPGSFVCQCYSGYALGEDGKRC [A18G] was 1.82; that for VNVPGSFVCQCYSGYALPEDGKRC [A18P] was 1.65. The same measure, in the same setting: under VNVPGSFVCQCYSGYALREDGKRC [A18R] stands 2.38. For VNVPGSFVCQCYSGYALEEDGKRC [A18E], the protein stability index turned out to be 2.56. Same read-out and setting: under VNVPGSFVCQCYSGYALSEDGKRC [A18S] stands 1.93; under VNVPGSFVCQCYVGYALAEDGKRC [S13V], 1.32. Still for that read-out and setting: under VNVPGSFVCQCYGGYALAEDGKRC [S13G] stands 2.33. Still for that read-out and setting: the value for VNVPGSFVCQCYWGYALAEDGKRC [S13W] was 3.15; that for VNVPGSFVCQCYTGYALAEDGKRC [S13T] was 2.34; that for VNVPGSFVCQCYLGYALAEDGKRC [S13L] was 2.52. As for VNVPGSFVCQCYDGYALAEDGKRC [S13D], the protein stability index is 2.17. The same measure, in the same setting: under VNVPGSFVCQCYAGYALAEDGKRC [S13A] stands 2.39; under VNYPGSFVCQCYSGYALAEDGKRC [V3Y], 2.52. Same read-out and setting: the value for VNFPGSFVCQCYSGYALAEDGKRC [V3F] was 1.69; that for VNLPGSFVCQCYSGYALAEDGKRC [V3L] was 2.35; that for VNCPGSFVCQCYSGYALAEDGKRC [V3C] was 1.08. On to VNTPGSFVCQCYSGYALAEDGKRC [V3T], for which the protein stability index is 2.39. Same read-out and setting: under VNMPGSFVCQCYSGYALAEDGKRC [V3M] stands 2.21; under VNHPGSFVCQCYSGYALAEDGKRC [V3H], 1.81; under VNPPGSFVCQCYSGYALAEDGKRC [V3P], 2.08. Still for that read-out and setting: the value for VNVPGSFVCQCYSGYALAEDRKRC [G21R] was 2.08; that for VNVPGSFVCQCYSGYALAEDVKRC [G21V] was 1.88; that for VNVPGSFVCQCYSGYALAEDKKRC [G21K] was 2.03. With VNVPGSFVCQCYSGYALAEDFKRC [G21F], the protein stability index is 1.58. Still for that read-out and setting: the value for VNVPGSFVCQCYSGYALAEDLKRC [G21L] was 2.7. Consider VNVPGSFVCQCYSGYALAEDMKRC [G21M], for which the protein stability index turned out to be 3.7. The same measure, in the same setting: the value for VNVPGSFVCQCYSGYALAEDHKRC [G21H] was 2.41; that for VNVPGSFVCQCYSGYALAEDIKRC [G21I] was 1.99. Take VNVPGSFVCQCYSGYALAEDTKRC [G21T]: the protein stability index amounted to 3.02. The same measure, in the same setting: under VNVPGSFVCQCYSGYALAEDNKRC [G21N] stands 1.93; under VNVPGSFVDQCYSGYALAEDGKRC [C9D], 4.36. The same measure, in the same setting: under VNVPGSFVKQCYSGYALAEDGKRC [C9K] stands 3.08; under VNVPGSFVAQCYSGYALAEDGKRC [C9A], 1.81; under VNVPGSFVLQCYSGYALAEDGKRC [C9L], 2.05. On to VNVPGSFVCTCYSGYALAEDGKRC [Q10T], for which the protein stability index was determined as 2.52. Still for that read-out and setting: under VNVPGSFVCFCYSGYALAEDGKRC [Q10F] stands 2.64. On the same count and under the same terms, the value for VNVPGSFVCECYSGYALAEDGKRC [Q10E] was 1.55; that for VNVPGSFVCYCYSGYALAEDGKRC [Q10Y] was 1.97.

Consider VNVPGSFVCWCYSGYALAEDGKRC [Q10W], for which the protein stability index turned out to be 2.32. With VNVPGSFVCSCYSGYALAEDGKRC [Q10S], the protein stability index was 2.29. Turning to VNVPGSFVCGCYSGYALAEDGKRC [Q10G], the protein stability index was 1.65. Same read-out and setting: the value for VNVEGSFVCQCYSGYALAEDGKRC [P4E] was 2.46; that for VNVCGSFVCQCYSGYALAEDGKRC [P4C] was 2.07.
